Measured values reported in patent US20210371524A1 (VOR BIOPHARMA, published 2021).

T1: Rhesus CD45RABC (rhesus, UniProt A0A1D5R142 26-1310)
T1 sequence: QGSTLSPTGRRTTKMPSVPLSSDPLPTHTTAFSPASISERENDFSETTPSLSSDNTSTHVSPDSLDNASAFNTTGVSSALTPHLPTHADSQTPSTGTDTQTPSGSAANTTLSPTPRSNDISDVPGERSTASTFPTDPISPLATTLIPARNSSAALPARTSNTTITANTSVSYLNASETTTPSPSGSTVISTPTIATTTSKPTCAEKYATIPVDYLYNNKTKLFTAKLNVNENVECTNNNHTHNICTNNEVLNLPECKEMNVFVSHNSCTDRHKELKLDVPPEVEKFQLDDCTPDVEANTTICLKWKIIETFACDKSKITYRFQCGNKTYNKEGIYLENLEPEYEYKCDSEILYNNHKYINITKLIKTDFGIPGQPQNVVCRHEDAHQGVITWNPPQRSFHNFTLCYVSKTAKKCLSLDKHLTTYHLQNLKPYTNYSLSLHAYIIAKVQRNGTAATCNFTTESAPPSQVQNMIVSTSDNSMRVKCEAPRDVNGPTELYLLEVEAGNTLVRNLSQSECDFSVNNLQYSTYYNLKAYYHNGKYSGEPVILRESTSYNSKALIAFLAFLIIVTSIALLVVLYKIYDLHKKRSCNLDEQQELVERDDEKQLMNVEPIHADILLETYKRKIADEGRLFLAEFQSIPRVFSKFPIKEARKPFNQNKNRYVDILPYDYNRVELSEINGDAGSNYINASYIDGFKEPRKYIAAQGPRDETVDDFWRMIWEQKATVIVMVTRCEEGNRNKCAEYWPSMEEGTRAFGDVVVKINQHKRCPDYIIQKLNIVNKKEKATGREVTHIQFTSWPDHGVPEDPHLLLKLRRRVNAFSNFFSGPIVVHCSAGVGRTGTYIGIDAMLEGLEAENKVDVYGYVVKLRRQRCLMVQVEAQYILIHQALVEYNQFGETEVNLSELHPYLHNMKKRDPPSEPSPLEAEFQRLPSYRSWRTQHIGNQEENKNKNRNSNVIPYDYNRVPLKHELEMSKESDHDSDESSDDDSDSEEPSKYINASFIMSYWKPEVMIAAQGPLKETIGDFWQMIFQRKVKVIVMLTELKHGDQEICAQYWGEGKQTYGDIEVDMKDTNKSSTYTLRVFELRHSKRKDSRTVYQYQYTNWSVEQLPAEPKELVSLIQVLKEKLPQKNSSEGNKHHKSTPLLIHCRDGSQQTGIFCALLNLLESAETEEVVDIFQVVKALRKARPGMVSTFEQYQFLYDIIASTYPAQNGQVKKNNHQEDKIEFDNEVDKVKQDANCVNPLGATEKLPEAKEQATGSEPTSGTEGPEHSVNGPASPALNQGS

T2: cynomolgus CD45 RABC (cynomolgus, UniProt A0A2K5VQ76 26-1301)
T2 construct: also called cyno CD45RABC; cyno RABC
T2 sequence: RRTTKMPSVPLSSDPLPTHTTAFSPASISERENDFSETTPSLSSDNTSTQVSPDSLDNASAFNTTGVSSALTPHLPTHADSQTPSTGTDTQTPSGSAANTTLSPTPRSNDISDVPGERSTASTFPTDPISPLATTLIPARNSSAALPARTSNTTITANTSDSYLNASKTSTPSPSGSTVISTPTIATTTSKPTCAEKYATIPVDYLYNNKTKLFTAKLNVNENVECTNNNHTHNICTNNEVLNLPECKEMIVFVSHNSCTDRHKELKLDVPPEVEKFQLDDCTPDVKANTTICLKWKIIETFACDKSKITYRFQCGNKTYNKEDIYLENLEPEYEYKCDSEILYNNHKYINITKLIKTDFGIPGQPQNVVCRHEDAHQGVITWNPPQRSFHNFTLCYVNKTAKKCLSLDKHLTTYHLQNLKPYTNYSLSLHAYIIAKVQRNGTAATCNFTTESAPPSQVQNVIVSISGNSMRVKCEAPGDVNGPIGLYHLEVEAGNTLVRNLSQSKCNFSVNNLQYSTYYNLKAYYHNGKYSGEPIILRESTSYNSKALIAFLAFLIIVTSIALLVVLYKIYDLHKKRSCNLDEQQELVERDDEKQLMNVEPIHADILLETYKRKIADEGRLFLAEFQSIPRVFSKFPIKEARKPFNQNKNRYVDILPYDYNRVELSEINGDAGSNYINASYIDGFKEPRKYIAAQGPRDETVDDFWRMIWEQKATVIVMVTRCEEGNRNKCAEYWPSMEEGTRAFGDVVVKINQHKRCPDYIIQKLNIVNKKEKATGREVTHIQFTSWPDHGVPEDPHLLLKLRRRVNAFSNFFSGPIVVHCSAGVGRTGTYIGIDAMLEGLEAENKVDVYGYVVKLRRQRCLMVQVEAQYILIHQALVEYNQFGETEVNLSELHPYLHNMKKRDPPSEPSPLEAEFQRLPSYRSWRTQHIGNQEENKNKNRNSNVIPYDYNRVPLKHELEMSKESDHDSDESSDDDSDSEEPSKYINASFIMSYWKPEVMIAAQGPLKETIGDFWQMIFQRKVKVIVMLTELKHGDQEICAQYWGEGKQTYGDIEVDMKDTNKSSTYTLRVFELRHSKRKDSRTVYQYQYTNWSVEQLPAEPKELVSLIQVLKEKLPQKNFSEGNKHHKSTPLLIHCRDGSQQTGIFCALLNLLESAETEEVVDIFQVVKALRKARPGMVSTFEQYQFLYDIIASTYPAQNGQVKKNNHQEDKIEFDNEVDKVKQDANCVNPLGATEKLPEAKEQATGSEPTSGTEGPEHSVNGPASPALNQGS

T3: Human CD45RABC Antigen (Fragment of Human CD45RABC Isoform) (human, UniProt P08575 26-577)
T3 sequence: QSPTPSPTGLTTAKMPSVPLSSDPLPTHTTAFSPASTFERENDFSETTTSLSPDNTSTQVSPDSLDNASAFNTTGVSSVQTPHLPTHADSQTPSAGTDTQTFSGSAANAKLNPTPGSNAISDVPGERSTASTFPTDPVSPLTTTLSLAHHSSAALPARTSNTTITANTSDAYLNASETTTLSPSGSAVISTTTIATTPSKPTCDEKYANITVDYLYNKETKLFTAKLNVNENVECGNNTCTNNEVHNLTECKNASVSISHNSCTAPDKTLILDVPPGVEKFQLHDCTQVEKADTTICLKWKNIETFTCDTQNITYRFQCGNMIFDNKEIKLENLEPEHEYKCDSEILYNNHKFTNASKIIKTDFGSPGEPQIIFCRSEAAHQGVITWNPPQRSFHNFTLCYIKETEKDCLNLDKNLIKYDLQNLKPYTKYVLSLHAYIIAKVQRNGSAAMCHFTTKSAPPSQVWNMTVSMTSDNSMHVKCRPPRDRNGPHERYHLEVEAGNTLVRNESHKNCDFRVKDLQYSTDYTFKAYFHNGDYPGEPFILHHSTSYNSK


Tests used:
[1] = target: human CD45 on human cells (PBMC, CD34+CD90+ bone marrow HSCs, cells expressing CD45) (human), P08575; assay: cell-based or functional assay
[2] = target: T1, Rhesus CD45RABC; assay: Octet (BLI), monovalent binding; KD on rhesus against KD on human CD45 RABC
[3] = target: T2, cynomolgus CD45 RABC; assay: Octet (BLI), monovalent binding; KD on cyno against KD on human CD45 RABC
[4] = target: T3, Human CD45RABC Antigen (Fragment of …); assay: Octet (BLI), monovalent binding
[5] = target: T2, cynomolgus CD45 RABC; assay: Octet (BLI), monovalent binding
[6] = target: T1, Rhesus CD45RABC; assay: Octet (BLI), monovalent binding

Binder | in vitro killing of human PBMCs, 4 days, Celltiter Glo [1] [pM] | in vitro killing of primary human CD34+CD90+ HSCs, 5 days, flow cytometry counts [1] [pM] | Fold Rhesus to Hu [2] [fold] | Fold cyno to Hu [3] [fold] | Kd [4] [nM] | Kd [5] [nM] | Kd [6] [nM] | in vitro killing of PBMC immune cells (IC50) [1] [nM] | in vitro killing of primary human bone marrow CD34+CD90+ HSCs (IC50) [1] [nM]
CD45-AM (antibody AbB-amatoxin), Example 4 (antibody, V domains shown, here or on the partner: amanitin conjugated (interchain), drug to antibody ratio (DAR) 4) VH: EVQLVESGGDLVQPGRSLKLSCIASGFTFTNFWMTWIRQVSGKGLEWVASISSSGGSIYYPDSVKDRFTISRDNAKNTLYLQMNSLRSEDTATYYCVKLHYYSGGGDAWGQGTSVTVSS VL: DIQMTQSPSFLSASVGDRVTINCKASQNINKYLDWYQQKHGEAPKLLIHYTNNLHTGIPSRFSGSGSGTDYTLTISSLQPEDVATYFCLQHSSRWTFGGGTKLELK | 614 | 68 | – | – | – | – | – | – | –
AbB chimera (chimeric Antibody B, human IgG1) (antibody, V domains shown, also called chimeric AbB) VH: EVQLVESGGDLVQPGRSLKLSCIASGFTFTNFWMTWIRQVSGKGLEWVASISSSGGSIYYPDSVKDRFTISRDNAKNTLYLQMNSLRSEDTATYYCVKLHYYSGGGDAWGQGTSVTVSS VL: DIQMTQSPSFLSASVGDRVTINCKASQNINKYLDWYQQKHGEAPKLLIHYTNNLHTGIPSRFSGSGSGTDYTLTISSLQPEDVATYFCLQHSSRWTFGGGTKLELK | – | – | 6 | 5 | 2.84 | 14.5 | 15.8 | – | –
AbC chimera (chimeric Antibody C, human IgG1) (antibody, V domains shown, also called chimeric AbC) VH: EVQLVESGGDLVQPGRSLKLSCVASGFTFNNYWMTWIRQVPGKGLEWVASISSSGGSIYYPDSVKDRFTISRDNAKNTLFLQMNSLRSEDTATYYCARLYYYSGGGDAWGQGTSVTVSS VL: DIQMTQSPSFLSASVGDRVTIICKASQDINKYLDWYQQKLGEAPKLLIYNTNNLHTGIPSRFSGSGSGTDYTLTISSLQPEDVATYFCLQHISRWTFGGGTKLELK | – | – | 8 | 8 | 7.54 | 62.2 | 63.5 | – | –
CD45-AM (chimeric AbA as IgG1 conjugated to amatoxin), Example 2 (antibody, V domains shown, here or on the partner: amatoxin (AM) payload conjugated to the antibody; site and drug to antibody ratio not stated in Example 2) VH: EVQLVESGGDRVQPGRSLTLSCVTSGFTFNNYWMTWIRQVPGKGLEWVASISSSGGSIYYPDSVKGRFTISRDNAKNTLYLQMNSLRSEDTATYYCARDERWAGAMDAWGQGTSVTVSS VL: DIQMTQSPPVLSASVGDRVTLSCKASQNINKNLDWYQQKHGEAPKLLIYETNNLQTGIPSRFSGSGSGTDYTLTISSLQPEDVATYYCYQHNSRFTFGSGTKLEIK | – | – | – | – | – | – | – | 0.055 | 0.067
AbA chimera (chimeric Antibody A, human IgG1) (antibody, V domains shown, also called chimeric AbA) VH: EVQLVESGGDRVQPGRSLTLSCVTSGFTFNNYWMTWIRQVPGKGLEWVASISSSGGSIYYPDSVKGRFTISRDNAKNTLYLQMNSLRSEDTATYYCARDERWAGAMDAWGQGTSVTVSS VL: DIQMTQSPPVLSASVGDRVTLSCKASQNINKNLDWYQQKHGEAPKLLIYETNNLQTGIPSRFSGSGSGTDYTLTISSLQPEDVATYYCYQHNSRFTFGSGTKLEIK | – | – | 5 | 4 | 2.34 | 9.33 | 12.3 | – | –
